*1 amine or outer side, *2 acyl side, *3 side chain or, on linkers, in order; H or OH if unused. Side-chain parts run from the residue outwards. [ ]: non-standard residue; d: D form. The star is where a group is joined. C20 diacid = O=C(O)CCCCCCCCCCCCCCCCCCC(=O)*; γGlu = O=C(O)[C@H](CCC(=O)[*:2])N[*:1]; AEEA = NCCOCCOCC(=O)O; Aib = CC(C)(N)C(=O)O
T1: human GLP-2 receptor (hGLP2-R) (human, UniProt O95838 1-553)
T1 sequence (looked up): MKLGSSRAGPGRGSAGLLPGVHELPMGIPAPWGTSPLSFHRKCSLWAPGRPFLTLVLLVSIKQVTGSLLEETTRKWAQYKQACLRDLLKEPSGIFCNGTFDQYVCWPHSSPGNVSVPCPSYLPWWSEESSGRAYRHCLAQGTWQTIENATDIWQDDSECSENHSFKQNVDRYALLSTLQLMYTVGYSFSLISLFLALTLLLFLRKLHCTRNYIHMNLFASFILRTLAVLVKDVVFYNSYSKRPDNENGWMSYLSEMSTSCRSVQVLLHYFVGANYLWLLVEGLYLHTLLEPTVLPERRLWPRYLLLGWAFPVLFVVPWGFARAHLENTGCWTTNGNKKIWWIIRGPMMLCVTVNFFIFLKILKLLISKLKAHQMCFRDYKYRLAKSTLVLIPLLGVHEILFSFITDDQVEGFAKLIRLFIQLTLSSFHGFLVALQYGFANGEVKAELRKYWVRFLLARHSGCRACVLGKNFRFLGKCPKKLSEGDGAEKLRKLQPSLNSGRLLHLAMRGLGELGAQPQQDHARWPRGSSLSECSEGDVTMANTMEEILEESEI


What was measured:
[1] = target: human glucagon-like peptide 1 receptor (GLP-1 R) (human, UniProt P43220 24-463); assay: cell-based or functional assay
[2] = target: T1, human GLP-2 receptor (hGLP2-R); assay: cell-based or functional assay

Row | EC50 GLP-1 (nM); cAMP response [1] [nM] | EC50 GLP-2 (nM); cAMP response [2] [nM] | Binder
1 | 0.26 | 0.38 | H-H[Aib]EGTFTSELATILDEQAAK([AEEA-AEEA-γGlu-C20 diacid])DFIAWLIEHKITD-OH (SMILES CC[C@H](C)[C@H](NC(=O)[C@H](Cc1ccccc1)NC(=O)[C@H](CC(=O)O)NC(=O)[C@H](CCCCNC(=O)COCCOCCNC(=O)COCCOCCNC(=O)CC[C@H](NC(=O)CCCCCCCCCCCCCCCCCCC(=O)O)C(=O)O)NC(=O)[C@H](C)NC(=O)[C@H](C)NC(=O)[C@H](CCC(N)=O)NC(=O)[C@H](CCC(=O)O)NC(=O)[C@H](CC(=O)O)NC(=O)[C@H](CC(C)C)NC(=O)[C@@H](NC(=O)[C@@H](NC(=O)[C@H](C)NC(=O)[C@H](CC(C)C)NC(=O)[C@H](CCC(=O)O)NC(=O)[C@H](CO)NC(=O)[C@@H](NC(=O)[C@H](Cc1ccccc1)NC(=O)[C@@H](NC(=O)CNC(=O)[C@H](CCC(=O)O)NC(=O)C(C)(C)NC(=O)[C@@H](N)Cc1c[nH]cn1)[C@@H](C)O)[C@@H](C)O)[C@@H](C)O)[C@@H](C)CC)C(=O)N[C@@H](C)C(=O)N[C@@H](Cc1c[nH]c2ccccc12)C(=O)N[C@@H](CC(C)C)C(=O)N[C@H](C(=O)N[C@@H](CCC(=O)O)C(=O)N[C@@H](Cc1c[nH]cn1)C(=O)N[C@@H](CCCCN)C(=O)N[C@H](C(=O)N[C@H](C(=O)N[C@@H](CC(=O)O)C(=O)O)[C@@H](C)O)[C@@H](C)CC)[C@@H](C)CC) [Compound 46]
2 | 1.4 | 0.36 | H-H[Aib]EGSFTSELATILDEQAAK([AEEA-AEEA-γGlu-C20 diacid])DFIAWLIEHKITD-OH (SMILES CC[C@H](C)[C@H](NC(=O)[C@H](Cc1ccccc1)NC(=O)[C@H](CC(=O)O)NC(=O)[C@H](CCCCNC(=O)COCCOCCNC(=O)COCCOCCNC(=O)CC[C@H](NC(=O)CCCCCCCCCCCCCCCCCCC(=O)O)C(=O)O)NC(=O)[C@H](C)NC(=O)[C@H](C)NC(=O)[C@H](CCC(N)=O)NC(=O)[C@H](CCC(=O)O)NC(=O)[C@H](CC(=O)O)NC(=O)[C@H](CC(C)C)NC(=O)[C@@H](NC(=O)[C@@H](NC(=O)[C@H](C)NC(=O)[C@H](CC(C)C)NC(=O)[C@H](CCC(=O)O)NC(=O)[C@H](CO)NC(=O)[C@@H](NC(=O)[C@H](Cc1ccccc1)NC(=O)[C@H](CO)NC(=O)CNC(=O)[C@H](CCC(=O)O)NC(=O)C(C)(C)NC(=O)[C@@H](N)Cc1c[nH]cn1)[C@@H](C)O)[C@@H](C)O)[C@@H](C)CC)C(=O)N[C@@H](C)C(=O)N[C@@H](Cc1c[nH]c2ccccc12)C(=O)N[C@@H](CC(C)C)C(=O)N[C@H](C(=O)N[C@@H](CCC(=O)O)C(=O)N[C@@H](Cc1c[nH]cn1)C(=O)N[C@@H](CCCCN)C(=O)N[C@H](C(=O)N[C@H](C(=O)N[C@@H](CC(=O)O)C(=O)O)[C@@H](C)O)[C@@H](C)CC)[C@@H](C)CC) [Compound 45]

The remaining lines, values behind:

Row | Binder | EC50 GLP-1 (nM); cAMP response [1] [nM] | EC50 GLP-2 (nM); cAMP response [2] [nM]
3 | H-H[Aib]EGSFTSELATILEGK([AEEA-AEEA-γGlu-C20 diacid])AARDFIAWLIEHKITD-OH [Compound 44] | 0.063 | 0.14
4 | H-H[Aib]EGSFTSEK([AEEA-AEEA-γGlu-C20 diacid])ATILDEQAARDFIAWLIEHKITD-OH (SMILES CC[C@H](C)[C@H](NC(=O)[C@H](Cc1ccccc1)NC(=O)[C@H](CC(=O)O)NC(=O)[C@H](CCCNC(=N)N)NC(=O)[C@H](C)NC(=O)[C@H](C)NC(=O)[C@H](CCC(N)=O)NC(=O)[C@H](CCC(=O)O)NC(=O)[C@H](CC(=O)O)NC(=O)[C@H](CC(C)C)NC(=O)[C@@H](NC(=O)[C@@H](NC(=O)[C@H](C)NC(=O)[C@H](CCCCNC(=O)COCCOCCNC(=O)COCCOCCNC(=O)CC[C@H](NC(=O)CCCCCCCCCCCCCCCCCCC(=O)O)C(=O)O)NC(=O)[C@H](CCC(=O)O)NC(=O)[C@H](CO)NC(=O)[C@@H](NC(=O)[C@H](Cc1ccccc1)NC(=O)[C@H](CO)NC(=O)CNC(=O)[C@H](CCC(=O)O)NC(=O)C(C)(C)NC(=O)[C@@H](N)Cc1c[nH]cn1)[C@@H](C)O)[C@@H](C)O)[C@@H](C)CC)C(=O)N[C@@H](C)C(=O)N[C@@H](Cc1c[nH]c2ccccc12)C(=O)N[C@@H](CC(C)C)C(=O)N[C@H](C(=O)N[C@@H](CCC(=O)O)C(=O)N[C@@H](Cc1c[nH]cn1)C(=O)N[C@@H](CCCCN)C(=O)N[C@H](C(=O)N[C@H](C(=O)N[C@@H](CC(=O)O)C(=O)O)[C@@H](C)O)[C@@H](C)CC)[C@@H](C)CC) [Compound 42] | 0.067 | 0.33
5 | H-H[Aib]EGSFTSELATILDK([AEEA-AEEA-γGlu-C20 diacid])KAARDFIAWLIEHKITD-OH (SMILES CC[C@H](C)[C@H](NC(=O)[C@H](Cc1ccccc1)NC(=O)[C@H](CC(=O)O)NC(=O)[C@H](CCCNC(=N)N)NC(=O)[C@H](C)NC(=O)[C@H](C)NC(=O)[C@H](CCCCN)NC(=O)[C@H](CCCCNC(=O)COCCOCCNC(=O)COCCOCCNC(=O)CC[C@H](NC(=O)CCCCCCCCCCCCCCCCCCC(=O)O)C(=O)O)NC(=O)[C@H](CC(=O)O)NC(=O)[C@H](CC(C)C)NC(=O)[C@@H](NC(=O)[C@@H](NC(=O)[C@H](C)NC(=O)[C@H](CC(C)C)NC(=O)[C@H](CCC(=O)O)NC(=O)[C@H](CO)NC(=O)[C@@H](NC(=O)[C@H](Cc1ccccc1)NC(=O)[C@H](CO)NC(=O)CNC(=O)[C@H](CCC(=O)O)NC(=O)C(C)(C)NC(=O)[C@@H](N)Cc1c[nH]cn1)[C@@H](C)O)[C@@H](C)O)[C@@H](C)CC)C(=O)N[C@@H](C)C(=O)N[C@@H](Cc1c[nH]c2ccccc12)C(=O)N[C@@H](CC(C)C)C(=O)N[C@H](C(=O)N[C@@H](CCC(=O)O)C(=O)N[C@@H](Cc1c[nH]cn1)C(=O)N[C@@H](CCCCN)C(=O)N[C@H](C(=O)N[C@H](C(=O)N[C@@H](CC(=O)O)C(=O)O)[C@@H](C)O)[C@@H](C)CC)[C@@H](C)CC) [Compound 43] | 0.096 | 0.15

Reference: patent US20200297818A1 (ZEALAND PHARMA A S, published 2020)
